Assay results: PMC9452514, “Coiled-coil structure of meiosis protein TEX12 and conformational regulation by its C-terminal tip” (Communications Biology, 2022)
Where a chain is given by its changes, count along the chain named. In names and notes the source's numbering stands.

B1: TEX12 core (amino-acids 49–123) wild-type (domain or fragment, human, UniProt Q9BXU0 49-123, looked up)
chain: KDEALEKDLNDVSKEINLMLSTYAKLLSERAAVDASYIDEIDELFKEANAIENFLIQKREFLRQRFTVIANTLHR
notes: TEX12, human, structural core, amino-acids 49-123; expressed from pMAT11 as a TEV-cleavable His-MBP fusion; also called TEX12 wild-type; WT; source: E. coli BL21 (DE3), purified (Ni-NTA, amylose, HiTrap Q HP, TEV cleavage, SEC); not shown: His, N-terminal, cleaved; MBP, N-terminal, cleaved
B2: TEX12 core (amino-acids 49–123) L110E F114E I117E L121E (LFIL) (domain or fragment, human, UniProt Q9BXU0 49-123, looked up)
chain: B1 chain with L62E, F66E, I69E, L73E
notes: TEX12, human, structural core, amino-acids 49-123, with glutamate mutations of the Ctip heptad amino-acids; In solution tetramers in concentration-dependent equilibrium with dimers; also called TEX12 LFIL; source: E. coli BL21 (DE3), purified (Ni-NTA, amylose, HiTrap Q HP, TEV cleavage, SEC); not shown: His, N-terminal, cleaved; MBP, N-terminal, cleaved
B3: TEX12 core (amino-acids 49–123) F102A F109E V116A (FFV) (domain or fragment, human, UniProt Q9BXU0 49-123, looked up)
chain: B1 chain with F54A, F61E, V68A
notes: TEX12, human, structural core, amino-acids 49-123, with mutations of solvent-exposed residues; both crystal forms (6HK9, 6R2F) show dimers; The introduction gives the FFV of the earlier work as F102A F109A V116A; also called TEX12 FFV; TEX12 (49–123) FFV; source: E. coli BL21 (DE3), purified (Ni-NTA, amylose, HiTrap Q HP, TEV cleavage, SEC); not shown: His, N-terminal, cleaved; MBP, N-terminal, …
B4: TEX12 ΔCtip (amino-acids 49–113) (domain or fragment, human, UniProt Q9BXU0 49-113, looked up)
chain: KDEALEKDLNDVSKEINLMLSTYAKLLSERAAVDASYIDEIDELFKEANAIENFLIQKREFLRQR
notes: TEX12, human, core without the C-terminal tip (deletion of amino-acids 114-123), amino-acids 49-113; Tetramer in the crystal (6HK8); in solution tetramers in concentration-dependent equilibrium with dimers; also called TEX12 ΔCtip (49–113); source: E. coli BL21 (DE3), purified (Ni-NTA, amylose, HiTrap Q HP, TEV cleavage, SEC); not shown: His, N-terminal, cleaved; MBP, N-terminal, cleaved

Experiments:
[1] = target: the molecule itself; assay: SEC-MALS; Superdex 200 Increase 10/300 GL, 20 mM Tris pH 8.0, 150 mM KCl, 2 mM DTT; wild-type and FFV at >10 mg/ml and at 1 mg/ml; species stable across 1-10 mg/ml
[2] = target: the molecule itself; assay: SEC-MALS; Superdex 200 Increase 10/300 GL, 20 mM Tris pH 8.0, 150 mM KCl, 2 mM DTT; ΔCtip and LFIL loaded at 1 mg/ml after stepwise dilution
[3] = target: the molecule itself; assay: SEC-SAXS; Superdex 200 Increase 10/300 GL, 20 mM Tris pH 8.0, 150 mM KCl; ΔCtip and LFIL analysed at ~30 mg/ml to minimise dissociation
[4] = target: the molecule itself; assay: SEC-SAXS; Superdex 200 Increase 10/300 GL, 20 mM Tris pH 8.0, 150 mM KCl; samples at >5 mg/ml; beamline B21, Diamond Light Source
[5] = target: the molecule itself; assay: crystal structure; TEX12 FFV at 43 mg/ml, sitting drops, 200 mM calcium acetate, 40% MPD, 20 °C; C222_(1), 1.45 Å, two chains per asymmetric unit

Row | Protein | stoichiometry N [1] | stoichiometry N [2] | stoichiometry N [3] | stoichiometry N [4] | stoichiometry N [5]
1 | B1 | 2 | – | – | – | –
2 | B2 | – | 2 | 4 | – | –
3 | B3 | – | – | – | 4 | 2
4 | B4 | – | 2 | 4 | – | –
